Experimental data as given in US20180258161A1 (Chugai, published 2018).
Changes are numbered by the printed parent chain.

What was measured:
[1] = target: T1, recombinant human glypican 3 (human, UniProt P51654 25-563, biotin-labeled in the ELISA); test: ELISA on biotin-labeled GPC3
T1 construct: Six histidine residues are linked; also called GPC3; human GPC3
Method: The plate was incubated at 37° C. for 30 minutes. […] The plate was incubated for one hour.

[2] = target: T2, soluble human IL-6 receptor (human, UniProt P08887 20-357); test: Biacore T100
T2 construct: also called hsIL-6R; hIL6R
T2 sequence: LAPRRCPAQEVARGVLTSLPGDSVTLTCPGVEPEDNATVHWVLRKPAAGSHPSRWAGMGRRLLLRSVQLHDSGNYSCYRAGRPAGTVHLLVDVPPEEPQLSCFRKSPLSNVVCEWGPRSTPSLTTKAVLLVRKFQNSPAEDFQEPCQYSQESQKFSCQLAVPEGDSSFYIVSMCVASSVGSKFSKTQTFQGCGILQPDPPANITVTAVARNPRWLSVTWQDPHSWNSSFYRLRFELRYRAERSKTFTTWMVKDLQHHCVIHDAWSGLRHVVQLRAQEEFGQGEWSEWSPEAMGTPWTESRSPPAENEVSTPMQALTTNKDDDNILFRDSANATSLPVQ

human interleukin 6 = target: T3, human interleukin 6 (human, UniProt P05231 30-212, limits assumed); test: Biacore T100, antibody captured by Protein A/G, pH 7.4, 37 C
T3 construct: also called hIL6; IL-6
Method: Using Biacore T100 (GE Healthcare), the prepared antibodies were assessed for their binding activity (dissociation constant KD (M)) to human interleukin 6 (hIL6) at pH 7.4. The measurement was carried out using as a running buffer 0.05% Tween20, 10 mmol/1 ACES, 150 mmol/l NaCl (pH 7.4) containing 3 μM or 1.2 mM CaCl₂.
After an adequate amount of recombinant Protein A/G (Thermo Scientific) was immobilized onto Sensor chip CM5 (GE Healthcare) by an amino coupling method, antibodies were allowed to bind thereto. An appropriate concentration of hIL6 (human interleukin 6; Kamakura Techno-Science, Inc.) was injected as an analyte to interact with antibodies on the sensor chip. Then, the sensor chip was regenerated by injecting 10 mmol/1 glycine-HCl (pH 1.5). The measurement was carried out at 37° C.

recombinant human IgA [3] = target: T4, recombinant human IgA (human); test: Biacore T200, pH 8.0, 0.1 µM Ca, 1:1 binding model
T4 construct: Antigen; H(WT)-IgA1 with L(WT); The text calls human IgA a dimeric antigen; also called hIgA
Method: (§1) Using Biacore T200 (GE Healthcare), the obtained antibodies were assessed for their binding activity to human IgA (dissociation constant KD (M)). The measurement was carried out using as a running buffer 0.05% tween20, 20 mmol/1 ACES, 150 mmol/l NaCl (pH 7.4 or pH 5.8) containing 3 μM or 1.2 mM CaCl₂, or 0.05% tween20, 20 mmol/1 ACES, 150 mmol/l NaCl (pH 8.0) containing 0.1 μM or 10 mM CaCl₂.
(§2) After an adequate amount of recombinant Protein A/G (Thermo Scientific) was immobilized onto the Sensor chip CM5 (GE Healthcare) by an amino coupling method, antibodies were allowed to bind onto the sensor chip. An appropriate concentration of hIgA (described in (20-1)) was injected as an analyte to interact with antibodies on the sensor chip. Then, the sensor chip was regenerated by injecting 10 mmol/l glycine-HCl, pH 1.5. The measurement was carried out at 37° C. From the assay result, the dissociation constant KD (M) was calculated based on curve-fitting analysis and equilibrium constant analysis using Biacore T200 Evaluation Software (GE Healthcare).

recombinant human IgA [4] = target: T4, recombinant human IgA; test: Biacore T200, pH 7.4, 3 µM Ca, 1:1 binding model
Method: as §1, §2

recombinant human IgA [5] = target: T4, recombinant human IgA; test: Biacore T200, pH 5.8, 1.2 mM Ca, 1:1 binding model
Method: as §1, §2

recombinant human IgA [6] = target: T4, recombinant human IgA; test: Biacore T200, pH 5.8, 3 µM Ca, 1:1 binding model
Method: as §1, §2

recombinant human IgA [7] = target: T4, recombinant human IgA; test: Biacore T200, pH 8.0, 10 mM Ca, 1:1 binding model
Method: as §1, §2

recombinant human IgA [8] = target: T4, recombinant human IgA; test: Biacore T200, pH 7.4, 1.2 mM Ca, 1:1 binding model
Method: as §1, §2

recombinant human IgA [9] = target: T4, recombinant human IgA; test: Biacore T200, pH 7.4, 1.2 mM Ca, steady state affinity
Method: as §1, §2

recombinant human IgA [10] = target: T4, recombinant human IgA; test: Biacore T200, pH 5.8, 3 µM Ca, steady state affinity
Method: as §1, §2

recombinant human IgA [11] = target: T4, recombinant human IgA; test: Biacore T200, pH 7.4, 3 µM Ca, steady state affinity
Method: as §1, §2

recombinant human IgA [12] = target: T4, recombinant human IgA; test: Biacore T200, pH 5.8, 1.2 mM Ca, steady state affinity
Method: as §1, §2

[13] = target: T2, soluble human IL-6 receptor; test: Biacore T100, antibody captured by Protein A, 37 C

T4 sequence (heavy, as listed by the source): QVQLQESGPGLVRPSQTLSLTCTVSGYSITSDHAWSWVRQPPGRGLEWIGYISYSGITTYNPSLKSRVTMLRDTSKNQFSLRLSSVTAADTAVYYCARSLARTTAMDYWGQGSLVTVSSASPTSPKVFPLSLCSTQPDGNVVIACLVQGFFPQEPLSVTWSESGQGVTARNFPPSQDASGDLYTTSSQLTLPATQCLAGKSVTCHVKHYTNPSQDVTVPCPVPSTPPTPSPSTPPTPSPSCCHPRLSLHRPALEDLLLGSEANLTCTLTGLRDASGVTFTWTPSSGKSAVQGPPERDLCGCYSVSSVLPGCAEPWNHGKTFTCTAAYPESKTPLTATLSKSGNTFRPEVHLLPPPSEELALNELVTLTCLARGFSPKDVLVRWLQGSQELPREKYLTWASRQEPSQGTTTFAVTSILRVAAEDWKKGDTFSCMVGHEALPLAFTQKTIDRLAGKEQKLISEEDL
T3 sequence (P05231 30-212 limits assumed): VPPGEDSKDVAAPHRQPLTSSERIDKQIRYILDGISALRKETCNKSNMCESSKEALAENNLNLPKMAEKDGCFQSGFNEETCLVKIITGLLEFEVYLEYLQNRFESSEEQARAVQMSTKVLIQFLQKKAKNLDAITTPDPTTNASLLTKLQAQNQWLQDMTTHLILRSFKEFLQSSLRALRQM

B1: GC-IgG1 (antibody, V domains shown)
VH: QVQLVQSGAEVKKPGASVKVSCKASGYTFTDYEMHWVRQAPGQGLEWMGALDPKTGDTAYSQKFKGRVTLTADKSTSTAYMELSSLTSEDTAVYYCTRFYSYTYWGQGTLVTVSS
VL: DVVMTQSPLSLPVTPGEPASISCRSSQSLVHSNRNTYLHWYLQKPGQSPQLLIYKVSNRFSGVPDRFSGSGSGTDFTLKISRVEAEDVGVYYCSQNTHVPPTFGQGTKLEIKR
Does B1 bind [1]?
Result: binds

B2: FH4-IgG1 (antibody, V domains shown)
VH: QVQLVQSGAEVKKPGSSVKVSCKASGGTFSSYAISWVRQAPGQGLEWMGGIIPIFGTANYAQKFQGRVTITADESTSTAYMELSSLRSEDTAVYYCARERDYYDSSGYYDAFDIWGQGTMVTVSS
VL: ETTVTQSPSFLSASVGDRVTITCITTTDIDDDMNWFQQEPGKAPKLLISEGNILRPGVPSRFSSSGYGTDFTLTISKLQPEDFATYYCLQSDNLPFTFGQGTKLEIKR
How did the “Ca … (KD at 3 µM CaCl2 against KD at 2 mM CaCl2)” value [2] turn out when B2 was run?
The value was at least 60 fold.

B3: 6RL#9-IgG1 (antibody, V domains shown)
VH: QVQLVQSGAEVKKPGASVKVSCKASGYTFTSYYMHWVRQAPGQGLEWMGIINPSGGSTSYAQKFQGRVTMTRDTSTSTVYMELSSLRSEDTAVYYCARDDPGGGEYYFDYWGQGTLVTVSS
VL: QSVLTQPPSVSGAPGQRVTISCTGSRSNMGAGYDVHWYQLLPGAAPKLLISHNTHRPSGVPDRFSGSKSGASASLAITGLQAEDEADYYCQSHDSSLSAVVFGGGTKLTVLS
Which “Ca … (KD at 3 µM CaCl2 against KD at 2 mM CaCl2)” value [2] does the source give for B3 here?
The value was at least 120 fold.

B4: 6LC4-1#15-IgG1 (antibody, V domains shown)
VH: QVQLVQSGAEVKKPGATVKISCKVSGYTFTDYYMHWVQQAPGKGLEWMGLVDPEDGETIYAEKFQGRVTITADTSTDTAYMELSSLRSEDTAVYYCATAGSSSNFDYWGQGTLVTVSS
VL: QSALTQPRSVSGSPGQSVTISCTGTSSDVGGYNYVSWYQQHPGKAPKLMIYDVSKRPSGVPDRFSGSKSGNTASLTISGLQAEDEADYYCCSYAGSYTWVFGGGTKLTVLG
Does B4 bind (human interleukin 6)?
Result: binds

B5: GA1-IgG1 (antibody, V domains shown)
VH: EVQLVQSGAEVKKPGSSVKVSCKASGGTFSSYAISWVRQAPGQGLEWMGGIIPIFGTANYAQKFQGRVTITADESTSTAYMELSSLRSEDTAVYYCARVAPGNWGSPYFDYWGQGTLVTVSS
VL: DIQMTQSPSSLSASVGDRVTITCRASQSIEDDLAWYQQKPGKAPKLLIYEASSLQSGVPSRFSGSGSGTDFTLTISSLQPEDFATYYCQQRDSSPLTFGQGTKVEIKR
notes: also called GAI-IgG1
What does the source list for B5?
Kd (recombinant human IgA [3]): 100 nM; koff (recombinant human IgA [3]): 0.12 s⁻¹; kon (recombinant human IgA [3]): 1.2e+06 M⁻¹ s⁻¹; Kd (recombinant human IgA [4]): 190 nM; koff (recombinant human IgA [4]): 0.12 s⁻¹; kon (recombinant human IgA [4]): 640000 M⁻¹ s⁻¹; Kd (recombinant human IgA [5]): 140 nM; koff (recombinant human IgA [5]): 0.099 s⁻¹; kon (recombinant human IgA [5]): 680000 M⁻¹ s⁻¹; Kd (recombinant human IgA [6]): 150 nM; koff (recombinant human IgA [6]): 0.11 s⁻¹; kon (recombinant human IgA [6]): 710000 M⁻¹ s⁻¹; Kd (recombinant human IgA [7]): 220 nM; koff (recombinant human IgA [7]): 0.24 s⁻¹; kon (recombinant human IgA [7]): 1.1e+06 M⁻¹ s⁻¹; Kd (recombinant human IgA [8]): 150 nM; koff (recombinant human IgA [8]): 0.084 s⁻¹; kon (recombinant human IgA [8]): 570000 M⁻¹ s⁻¹

B6: GA2-IgG1 (antibody, V domains shown)
VH: QVQLVQSGAEVKKPGSSVKVSCKASGGTFSSYAISWVRQAPGQGLEWMGGIIPIFGTANYAQKFQGRVTITADESTSTAYMELSSLRSEDTAVYYCARPRWETAISSDAFDIWGQGTMVTVSS
VL: B5 VL with E30S, A34N, S53N, R91H, D92S
Which koff (recombinant human IgA [8]) does the source give for B6 here?
The koff was 0.016 s⁻¹.

B7: GA4-IgG1 (antibody, V domains shown)
VH: QVQLQQSGPGLVKPSETLSLTCTILGGSISGHYWSWIRQTPGKGLEWIGYIDYSGSTHYNPSLKSRVTMSVDTSKNQFSLKLSSVTAADTAMYYCARDNWDFGSGSYYNWFDPWGQGTLVTVSS
VL: B5 VL with E50H, R91S, S93N
Which Kd (recombinant human IgA [9]) does the source give for B7 here?
The Kd was 420 nM.

And the Kd (recombinant human IgA [10])?
The Kd was 1500 nM.

And the Kd (recombinant human IgA [11])?
The Kd was 890 nM.

And the Kd (recombinant human IgA [12])?
Its Kd is 1100 nM.

B8: GA3-IgG1 (antibody, V domains shown)
VH: QVQLVQSGAEVKKPGSSVKVSCKASGGTFSSYAISWVRQAPGQGLEWMGGIIPIFGTANYAQKFQGRVTITADESTSTAYMELSSLRSEDTAVYYCARGNGDYLEYFQHWGQGTLVTVSS
VL: B5 VL with E30S, S53N
With B8 as the binder, how does the Kd (recombinant human IgA [5]) read?
The Kd was 81 nM.

What about the koff (recombinant human IgA [5]) of the same binder?
Its koff is 0.035 s⁻¹.

And the kon (recombinant human IgA [5])?
The kon was 440000 M⁻¹ s⁻¹.

What about the Kd (recombinant human IgA [10]) of the same binder?
Its Kd is 1100 nM.

And the Kd (recombinant human IgA [8])?
The Kd was 79 nM.

What about the koff (recombinant human IgA [8]) of the same binder?
The koff was 0.033 s⁻¹.

And the kon (recombinant human IgA [8])?
Its kon is 430000 M⁻¹ s⁻¹.

B9: 6RK#12-IgG1 (antibody, V domains shown)
VH: QVQLVQSGAEVKKPGSSVKVSCKASGGTFSSYAISWVRQAPGQGLEWMGGIIPIFGTANYAQKFQGRVTITADESTSTAYMELSSLRSEDTAVYYCARDLGDIVVVPAAPDMPKGYYYYGMDVWGQGTMVTVSS
VL: EIVMTQSPATLSVSPGERATLSCRASQSINDNLAWYQQKPGQAPRLLIYGASTRATGIPARFSGSGSGTEFTLTISSLQSEDFAVYFCQQYQYWPPITFGQGTRLDIKR
Does B9 bind [13]?
Result: binds

B10: 6KC4-1#85-IgG1 (antibody, V domains shown)
VH: EVQLVESGGGLVQPGGSLRLSCAASGFTFSSYEMNWVRQAPGKGLEWVSYISSSGSTIYYADSVKGRFTISRDNAKNSLYLQMNSLRAEDTAVYYCARDAPYYYDSSGYTDAFDIWGQGTMVTVSS
VL: EIVLTQSPATLSLSPGERATLSCRASQSVSSYLAWYQQKPGQAPRLLIFDASNRAAGIPARFSGSGSGTDFTLTISSLEPEDFAVYYCQQFDKWVTFGGGTTVEIRR
Does B10 bind (human interleukin 6)?
Result: binds

B11: 6LC4-2#16-IgG1 (antibody, V domains shown)
VH: QVQLQQSGPGLVKPSQTLSLTCAISGDSVSSNSAAWNWIRQSPSRGLEWLGRTYYRSKWYNDYAVSVKSRITINPDTSKNQFSLQLNSVTPEDTAVYYCARDLIAAAGGDFDYWGQGTLVTVSS
VL: QSVLTQPPSVSGAPGQRVTISCTGSRSNIGAGFDVHWYRQLPGTAPKLLIYGISNRPSGVPDRFSGSKSDTSVSLAITGLQAEDEADYYCQSYDSSLSGYVFGTGTKVTVLG
Does B11 bind (human interleukin 6)?
Result: binds
